From patent publication US20190309084A1 (ALLIGATOR BIOSCIENCE, published 2019)
Numbering of substitutions follows the chain as printed.

T1: Human GITR (Acro Biosystems, #GIR-H5228) (human, UniProt Q9Y5U5 26-161)
T1 construct: Bought recombinant protein, amine-coupled to the sensor tips; also called hGITR
T1 sequence: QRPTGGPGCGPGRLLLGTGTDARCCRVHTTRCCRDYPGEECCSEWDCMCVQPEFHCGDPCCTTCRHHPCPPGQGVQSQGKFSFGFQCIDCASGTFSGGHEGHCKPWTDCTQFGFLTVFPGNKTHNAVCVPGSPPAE

T2: GITR-hFc (R&D Systems, #689-GR) (human, UniProt Q9Y5U5 26-161)
T2 construct: Bought; also called Human GITR (coated in ELISA plates); not shown: human Fc part of a bought fusion protein
T2 sequence: T1 sequence

B1: GITR/CTLA-4 bispecific antibody 2404/2405 (bispecific antibody, IgG1)
VH: EVQLLESGGGLVQPGGSLRLSCAASGFTFSYSSMSWVRQAPGKGLEWVSYIGSGGSHTYYADSVKGRFTISRDNSKNTLYLQMNSLRAEDTAVYYCARYSYYFDYWGQGTLVTVSS
light: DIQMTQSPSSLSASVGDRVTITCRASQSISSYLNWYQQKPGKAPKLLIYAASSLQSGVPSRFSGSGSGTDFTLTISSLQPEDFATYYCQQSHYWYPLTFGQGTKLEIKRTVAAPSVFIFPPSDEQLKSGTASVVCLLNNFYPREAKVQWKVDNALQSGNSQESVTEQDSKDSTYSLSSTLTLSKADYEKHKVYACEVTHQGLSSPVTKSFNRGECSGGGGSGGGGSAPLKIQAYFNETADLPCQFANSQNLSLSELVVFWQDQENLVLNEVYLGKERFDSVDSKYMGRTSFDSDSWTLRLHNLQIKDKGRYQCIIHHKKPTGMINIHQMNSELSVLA
B2: GITR/CTLA-4 bispecific antibody 2348/2349 (bispecific antibody)
VH: EVQLLESGGGLVQPGGSLRLSCAASGFTFGYYYMSWVRQAPGKGLEWVSGISSPSSYTYYADSVKGRFTISRDNSKNTLYLQMNSLRAEDTAVYYCARYYGSYFDYWGQGTLVTVSS
light: DIQMTQSPSSLSASVGDRVTITCRASQAISAYLNWYQQKPGKAPKLLIYAASSLQSGVPSRFSGSGSGTDFTLTISSLQPEDFATYYCQQSYGYYLYTFGQGTKLEIKRTVAAPSVFIFPPSDEQLKSGTASVVCLLNNFYPREAKVQWKVDNALQSGNSQESVTEQDSKDSTYSLSSTLTLSKADYEKHKVYACEVTHQGLSSPVTKSFNRGECSGGGGSGGGGSAPLKIQAYFNETADLPCQFANSQNLSLSELVVFWQDQENLVLNEVYLGKERFDSVDSKYMGRTSFDSDSWTLRLHNLQIKDKGRYQCIIHHKKPTGMINIHQMNSELSVLA
notes: Anti-GITR IgG with CD86 mutant 1040 fused to the C-terminus of the kappa chain
B3: GITR/CTLA-4 bispecific antibody 2372/2373, wildtype IgG1 format (bispecific antibody)
VH: EVQLLESGGGLVQPGGSLRLSCAASGFTFSGYSMGWVRQAPGKGLEWVSAISGSGGSTYYADSVKGRFTISRDNSKNTLYLQMNSLRAEDTAVYYCARYPWGYYFDYWGQGTLVTVSS
light: B2 light with A28G, S30R, A51V, S91Y, G93Y, Y94P, Y95P, Y97S
B4: GITR/CTLA-4 bispecific antibody 2372/2373, afucosylated IgG1 format (bispecific antibody)
VH: B3 VH
light: B2 light with A28G, S30R, A51V, S91Y, G93Y, Y94P, Y95P, Y97S
modifications: afucosylated Fc domain

Tests used:
[1] = target: T1, Human GITR (Acro Biosystems, #GIR-H5228); test: BLI (Octet RED96), GITR amine-coupled to AR2G tips, bispecific as analyte, 1:1 fit
[2] = target: T2, GITR-hFc (R&D Systems, #689-GR); test: dual ELISA: GITR-hFc coated, bispecific titrated, biotinylated CTLA-4-mFc then streptavidin-HRP, luminescence
[3] = target: T3, human CTLA-4 (ACRO Biosystems, #CT4-H5229) (human, UniProt P16410 38-152); test: BLI (Octet RED96), bispecific captured on anti-hIgG Fc (AHC) tips, hCTLA-4 as analyte, 1:1 fit
T3 construct: Bought recombinant protein, used as analyte in solution; also called hCTLA-4

[4] = target: T2, GITR-hFc (R&D Systems, #689-GR); test: dual ELISA: GITR-hFc coated, bispecific titrated, detected with biotinylated CTLA-4-mFc + streptavidin-HRP (signal needs binding to both targets); wildtype IgG1; dual ELISA, signal needs both GITR and CTLA-4
[5] = target: T2, GITR-hFc (R&D Systems, #689-GR); test: dual ELISA: GITR-hFc coated, bispecific titrated, detected with biotinylated CTLA-4-mFc + streptavidin-HRP (signal needs binding to both targets); afucosylated IgG1; dual ELISA, signal needs both GITR and CTLA-4

T3 sequence (P16410 38-152 limits assumed): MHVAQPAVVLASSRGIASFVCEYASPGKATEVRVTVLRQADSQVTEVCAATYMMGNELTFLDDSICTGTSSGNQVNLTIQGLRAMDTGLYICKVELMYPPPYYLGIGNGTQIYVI

Binder	Kd [1] [nM]	koff [1] [s⁻¹]	kon [1] [M⁻¹ s⁻¹]	EC50 (read off the curve) [2] [nM]	Kd [3] [nM]	koff [3] [s⁻¹]	kon [3] [M⁻¹ s⁻¹]	EC50 [4] [nM]	EC50 [5] [nM]
B1	1.67	0.000423	254000	~0.6	–	–	–	–	–
B2	0.346	5.28e-05	153000	~1	–	–	–	–	–
B3	0.608	0.000214	351000	~0.5	2.9	0.000551	190000	0.64	–
B4	–	–	–	–	–	–	–	–	0.54
